Experimental data as given in the supplement of paper PMC7877785.
± gives the uncertainty stated by the source.

Assay: self-splicing fitness, log relative to wild type (ln ratio); higher = more splicing; Tetrahymena group I intron in knt gene, E. coli kanamycin selection, DiMSum; sequences stand for … in CUCUCU…GGAGGGAAAAGUUAUCAGGCAUGCACCUGGUAGCUAGUCUUUAAACCAAUAGAUUGCAUCGGUUUAAAAGGCAAGACCGUCAAAUUGCGGGAAAGGGGUCAACAGCCGUUCAGUACCAAGUCUCAGGGGAAACUUUGAGAUGGCCUUGCAAAGGGUAUGGUAAUAAGCUGACGGACAUGGUCCUAACCACGCAGCCAAGUCCUAAGUCAACAGAUCUUCUGUUGAUAUGGAUGCAGUUCACAGACUAAAUGUCGGUCGGGGAAGAUGUAUUCUUCUCAUAAGAUAUAGUCGGACCUCUCCUUAAUGGGAGCUAGCGGAUGAAGUGAUGCAACACUGGAGCCGCUGGGAACUAAUUUGUAUGCGAAAGUAUAUUGAUUAGUUUUGGAGUACUCGUGGUCG
Method in brief: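 Library with all eight P1ex-region intron nucleotides randomised, intron inside the knt kanamycin-resistance gene on pET-22b(+), in E. coli BL21(DE3). Cells grew overnight at 37°C or 30°C on LB agar with or without 25 μg/mL kanamycin (plus 100 μg/mL carbenicillin, 50 μM IPTG, 0.2% rhamnose), in six replicate transformations. Pooled colonies were amplicon-sequenced on Illumina HiSeq 2500. DiMSum fitness is the error-weighted combination of wild-type-normalised replicate fold changes, kanamycin versus none.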

Sequence	self-splicing fitness (ln) (30 °C)	self-splicing fitness (ln) (37 °C)
GCGUAGCAAUAUUACGGGGC	-3.47 ± 0.21	-2.67 ± 0.24
GGGAAGCAAUAUUACGCAGG	-3.02 ± 0.22	-2.32 ± 0.28
CCGAAGCAAUAUUACGGACU	-2.33 ± 0.32	-2.2 ± 0.34
AAGUAGCAAUAUUACGGGAC	-2.43 ± 0.11	-2.83 ± 0.21
AACUAGCAAUAUUACGGAGA	-2.62 ± 0.23	-1.35 ± 0.2
UUCAAGCAAUAUUACGCCAA	-0.664 ± 0.11	-0.538 ± 0.11
UGUUAGCAAUAUUACGAAGU	-3.08 ± 0.13	-2.76 ± 0.19
UGCAAGCAAUAUUACGGGCG	-1.41 ± 0.087	-0.699 ± 0.1
CGCAAGCAAUAUUACGGGGU	-4.04 ± 0.18	-1.33 ± 0.12
UCAUAGCAAUAUUACGUCAU	-2.74 ± 0.29	-3.16 ± 0.27
CAGUAGCAAUAUUACGCCUU	-1.35 ± 0.4	
CGAGAGCAAUAUUACGAGCU	-4.6 ± 0.42	-3.02 ± 0.47
CGAUAGCAAUAUUACGCCGU	-2.9 ± 0.15	-1.78 ± 0.14
GGUAAGCAAUAUUACGAGGG	-2.38 ± 0.14	-2.98 ± 0.24
UAAGAGCAAUAUUACGUUGA		-1.97 ± 0.19
GUACAGCAAUAUUACGGGCG	-2.46 ± 0.18	-1.11 ± 0.15
CUCUAGCAAUAUUACGGUGC	-2.62 ± 0.21	
CCCCAGCAAUAUUACGGAAG	-2.27 ± 0.088	-1.73 ± 0.11
GUUGAGCAAUAUUACGGGUC	-2.23 ± 0.26	-1.89 ± 0.28
GUCGAGCAAUAUUACGAAGC	-2.37 ± 0.19	-1.85 ± 0.23
GUCGAGCAAUAUUACGUUGU		-2.78 ± 0.37
UUGAAGCAAUAUUACGCCGU	-1.33 ± 0.15	-0.893 ± 0.18
ACCGAGCAAUAUUACGCAGC	-4.02 ± 0.47	-2.84 ± 0.48
GAGUAGCAAUAUUACGGGUG	-2.78 ± 0.14	-1.71 ± 0.14
GCUAAGCAAUAUUACGCAGU	-3.5 ± 0.24	-2.88 ± 0.31

Sequence	self-splicing fitness (ln) (30 °C)	self-splicing fitness (ln) (37 °C)
UUAAAGCAAUAUUACGCGGG	-0.482 ± 0.11	-1.29 ± 0.13
GUCGAGCAAUAUUACGAGGC	-3.01 ± 0.21	-3.06 ± 0.31
CAGCAGCAAUAUUACGACGC		-1.5 ± 0.45
CAGUAGCAAUAUUACGCAGC	-3.05 ± 0.34	-1.3 ± 0.33
UAACAGCAAUAUUACGAUGC	-3.84 ± 0.33	-2.35 ± 0.26
AUAGAGCAAUAUUACGUCCU	-1.42 ± 0.093	-0.577 ± 0.14
GGUGAGCAAUAUUACGAGAG	-4.03 ± 0.27	-2.38 ± 0.18
GGAAAGCAAUAUUACGCAGG	-2.91 ± 0.15	-2.71 ± 0.22
AAUUAGCAAUAUUACGAACA	-0.672 ± 0.16	-0.784 ± 0.18
CGCAAGCAAUAUUACGGCUU	-2.5 ± 0.14	-2.28 ± 0.2
CUUAAGCAAUAUUACGGAUC	-1.71 ± 0.23	-2.11 ± 0.44
GUAUAGCAAUAUUACGUCAA	-2.37 ± 0.37	-2.86 ± 0.32
ACACAGCAAUAUUACGAACC	-2.57 ± 0.48	-1.09 ± 0.45
CGUCAGCAAUAUUACGAACC	-1.37 ± 0.41	0.157 ± 0.37
UUCAAGCAAUAUUACGUUGC		-3.55 ± 0.46
GAUCAGCAAUAUUACGCGUC	-2.9 ± 0.18	-3.33 ± 0.4
AUGUAGCAAUAUUACGCCCA	-0.905 ± 0.12	-0.148 ± 0.2
AAUCAGCAAUAUUACGUGUU	-0.901 ± 0.056	0.209 ± 0.064
CAGUAGCAAUAUUACGACCA	-0.792 ± 0.28	-0.375 ± 0.27
AGCCAGCAAUAUUACGCGUU	-2.17 ± 0.12	-0.95 ± 0.12
ACCAAGCAAUAUUACGUAAA	-2.62 ± 0.13	-1.38 ± 0.16
UGGCAGCAAUAUUACGAGCG	-0.577 ± 0.12	0.0222 ± 0.17
UUACAGCAAUAUUACGCUAU	-3.74 ± 0.25	-2.33 ± 0.21
CCCGAGCAAUAUUACGCUUA	-3.88 ± 0.3	-2.82 ± 0.33
AGGGAGCAAUAUUACGACGU	-2.14 ± 0.23	-1.63 ± 0.19

Sequence	self-splicing fitness (ln) (30 °C)	self-splicing fitness (ln) (37 °C)
ACUCAGCAAUAUUACGCACC	-1.19 ± 0.094	0.495 ± 0.11
UUUCAGCAAUAUUACGCAGA	-1.32 ± 0.27	-1.6 ± 0.24
GCUGAGCAAUAUUACGUCUA	-2.85 ± 0.22	-1.06 ± 0.14
UGUAAGCAAUAUUACGGUUG	-1.14 ± 0.096	-0.58 ± 0.1
CGUGAGCAAUAUUACGAAAG	-1.89 ± 0.17	-0.94 ± 0.16
CAAAAGCAAUAUUACGGGGG	-3.13 ± 0.18	-2.38 ± 0.15
AGGCAGCAAUAUUACGGGCU	-0.928 ± 0.071	-1.51 ± 0.11
CUCUAGCAAUAUUACGGGUG	-1.57 ± 0.092	-0.947 ± 0.1
UGCGAGCAAUAUUACGUUGA	-3.05 ± 0.27	-3.53 ± 0.32
AAGAAGCAAUAUUACGAUCC	-0.553 ± 0.14	-0.745 ± 0.18
CGACAGCAAUAUUACGUCUC	-1.98 ± 0.13	-2.13 ± 0.2
UGAAAGCAAUAUUACGGCUC	-1.4 ± 0.13	-0.842 ± 0.12
AGGAAGCAAUAUUACGGGGA	-2.97 ± 0.2	-2.38 ± 0.16
GGCUAGCAAUAUUACGAGAG	-2.09 ± 0.16	-3.24 ± 0.32
CAGGAGCAAUAUUACGCGUC	-4.22 ± 0.36	-3.04 ± 0.4
AGCAAGCAAUAUUACGUCGU	-1.72 ± 0.12	-0.897 ± 0.16
GCAUAGCAAUAUUACGAGUG	-2.77 ± 0.14	-1.76 ± 0.11
AAACAGCAAUAUUACGCCCG	-1.35 ± 0.27	-0.868 ± 0.32
GGUCAGCAAUAUUACGCGUG	-0.989 ± 0.077	-0.272 ± 0.083
AACUAGCAAUAUUACGAGGG	-2.13 ± 0.12	-2.24 ± 0.19
GGUUAGCAAUAUUACGAAAA	-2.05 ± 0.41	0.949 ± 0.28
GCGAAGCAAUAUUACGGCAG	-1.93 ± 0.21	-2.92 ± 0.38
AAUAAGCAAUAUUACGGUAU	-2.05 ± 0.099	-1.04 ± 0.13
CAAAAGCAAUAUUACGGGUC	-3.11 ± 0.094	-2.51 ± 0.12
AGCAAGCAAUAUUACGUCAC	-2.89 ± 0.16	-1.88 ± 0.18

Sequence	self-splicing fitness (ln) (30 °C)	self-splicing fitness (ln) (37 °C)
GAGGAGCAAUAUUACGGGGG	-3.09 ± 0.27	-3.13 ± 0.47
UGGAAGCAAUAUUACGAAGU	-3.57 ± 0.35	
UAGUAGCAAUAUUACGUCAG		-0.99 ± 0.22
AUUGAGCAAUAUUACGGGUG	-4.2 ± 0.28	-2.2 ± 0.3
GAAUAGCAAUAUUACGUAUU	-2.18 ± 0.15	-1.45 ± 0.14
AUGGAGCAAUAUUACGCGCG	-2.41 ± 0.17	-1.27 ± 0.19
CAGUAGCAAUAUUACGGUGU	-3.63 ± 0.3	-0.678 ± 0.15
GGAAAGCAAUAUUACGUGGG	-3.72 ± 0.19	-1.47 ± 0.11
UUUUAGCAAUAUUACGAGUU		-0.193 ± 0.24
CACGAGCAAUAUUACGCGCC		-0.83 ± 0.48
UUGCAGCAAUAUUACGGGUA	-1.76 ± 0.097	-0.893 ± 0.087
GCCUAGCAAUAUUACGCAAU	-0.932 ± 0.14	-0.245 ± 0.17
UUUGAGCAAUAUUACGGCCU	-3.9 ± 0.4	0.167 ± 0.26
CACCAGCAAUAUUACGUCGA	-1.89 ± 0.086	-0.942 ± 0.088
UCAGAGCAAUAUUACGCACU	-2.95 ± 0.44	-2.62 ± 0.48
UGCCAGCAAUAUUACGAGUG	-1.32 ± 0.064	-0.537 ± 0.079
UAAUAGCAAUAUUACGCCUC	-2.77 ± 0.35	-1.53 ± 0.38
GAAAAGCAAUAUUACGGUAG	-3.24 ± 0.18	-1.53 ± 0.13
GAUUAGCAAUAUUACGCCAU		-1.97 ± 0.47
UCUGAGCAAUAUUACGGAGA	-2.35 ± 0.17	-0.963 ± 0.14
AGGUAGCAAUAUUACGUGCC	-1.99 ± 0.022	-1.22 ± 0.037
CAAGAGCAAUAUUACGGUAU	-4.27 ± 0.22	-2.63 ± 0.21
AACCAGCAAUAUUACGCUCA	-0.325 ± 0.049	0.493 ± 0.072
GCGUAGCAAUAUUACGUCUC		-2.6 ± 0.39
